Where a chain is given by its changes, count along the chain named. Names and notes keep the numbering of the source.
B1: CIgE4A1A1(GS)2 (Fc fusion)
chain 1: GPPCPPCPAPEFLGGPSVFLFPPKPKDTLMISRTPEVTCVVVDVSQEDPEVQFNWYVDGVEVHNAKTKPREEQFNSTYRVVSVLTVLHQDWLNGKEYKCKVSNKGLPSSIEKTISKAKGQPREPQVYTLPPCQEEMTKNQVSLWCLVKGFYPSDIAVEWESNGQPENNYKTTPPVLDSDGSFFLYSRLTVDKSRWQEGNVFSCSVMHEALHNHYTQKSLSLSLGKGGGGSGGGGSEVQLLESGGGLVQPGGSLRLSCAASGFTFGNYDMAWVRQAPGKRPEWVSSIDTGGDITHYADSVKGRFTISRDNAKNTLYLQMNSLRPEDTAVYWCATDEEYALGPNEFDYYGQGTLVTVSS
chain 2: B1 chain 1 with Y127C, C132S, W144S, L146A, Y185V
B2: NIgG4B1A1(G4S)3 (Fc fusion)
chain 1: QVQLQESGGGLVQTGGSLRLSCAVHGRTFSNTGMGWFRQAPGNERQFVAIISPSGTSTYYADSVKGRFTISRDPAKNTVYLQMNSLKMDDTAVYYCAASYGSNWSTLRHQRRNEYDAWGQGTQVAVSGGGGSGGGGSGGGGSGPPCPPCPAPEFLGGPSVFLFPPKPKDTLMISRTPEVTCVVVDVSQEDPEVQFNWYVDGVEVHNAKTKPREEQFNSTYRVVSVLTVLHQDWLNGKEYKCKVSNKGLPSSIEKTISKAKGQPREPQVYTLPPCQEEMTKNQVSLWCLVKGFYPSDIAVEWESNGQPENNYKTTPPVLDSDGSFFLYSRLTVDKSRWQEGNVFSCSVMHEALHNHYTQKSLSLSLGK
chain 2: EVQLLESGGGLVQPGGSLRLSCAASGFTFGNYDMAWVRQAPGKRPEWVSSIDTGGDITHYADSVKGRFTISRDNAKNTLYLQMNSLRPEDTAVYWCATDEEYALGPNEFDYYGQGTLVTVSSGGGGSGGGGSGGGGSGPPCPPCPAPEFLGGPSVFLFPPKPKDTLMISRTPEVTCVVVDVSQEDPEVQFNWYVDGVEVHNAKTKPREEQFNSTYRVVSVLTVLHQDWLNGKEYKCKVSNKGLPSSIEKTISKAKGQPREPQVCTLPPSQEEMTKNQVSLSCAVKGFYPSDIAVEWESNGQPENNYKTTPPVLDSDGSFFLVSRLTVDKSRWQEGNVFSCSVMHEALHNHYTQKSLSLSLGK
B3: NIgG4A1A1(G4S)3 (Fc fusion)
chain 1: B2 chain 2 with C264Y, S269C, S281W, A283L, V322Y
chain 2: B2 chain 2
B4: NIgG4A1A1(G4S)2 (Fc fusion)
chain 1: EVQLLESGGGLVQPGGSLRLSCAASGFTFGNYDMAWVRQAPGKRPEWVSSIDTGGDITHYADSVKGRFTISRDNAKNTLYLQMNSLRPEDTAVYWCATDEEYALGPNEFDYYGQGTLVTVSSGGGGSGGGGSGPPCPPCPAPEFLGGPSVFLFPPKPKDTLMISRTPEVTCVVVDVSQEDPEVQFNWYVDGVEVHNAKTKPREEQFNSTYRVVSVLTVLHQDWLNGKEYKCKVSNKGLPSSIEKTISKAKGQPREPQVYTLPPCQEEMTKNQVSLWCLVKGFYPSDIAVEWESNGQPENNYKTTPPVLDSDGSFFLYSRLTVDKSRWQEGNVFSCSVMHEALHNHYTQKSLSLSLGK
chain 2: B4 chain 1 with Y259C, C264S, W276S, L278A, Y317V
B5: CIgE4A1A1(GS)1 (Fc fusion)
chain 1: GPPCPPCPAPEFLGGPSVFLFPPKPKDTLMISRTPEVTCVVVDVSQEDPEVQFNWYVDGVEVHNAKTKPREEQFNSTYRVVSVLTVLHQDWLNGKEYKCKVSNKGLPSSIEKTISKAKGQPREPQVYTLPPCQEEMTKNQVSLWCLVKGFYPSDIAVEWESNGQPENNYKTTPPVLDSDGSFFLYSRLTVDKSRWQEGNVFSCSVMHEALHNHYTQKSLSLSLGKGGGGSEVQLLESGGGLVQPGGSLRLSCAASGFTFGNYDMAWVRQAPGKRPEWVSSIDTGGDITHYADSVKGRFTISRDNAKNTLYLQMNSLRPEDTAVYWCATDEEYALGPNEFDYYGQGTLVTVSS
chain 2: B5 chain 1 with Y127C, C132S, W144S, L146A, Y185V
B6: CIgG4A1A1(RS) (Fc fusion)
chain 1: GPPCPPCPAPEFLGGPSVFLFPPKPKDTLMISRTPEVTCVVVDVSQEDPEVQFNWYVDGVEVHNAKTKPREEQFNSTYRVVSVLTVLHQDWLNGKEYKCKVSNKGLPSSIEKTISKAKGQPREPQVYTLPPCQEEMTKNQVSLWCLVKGFYPSDIAVEWESNGQPENNYKTTPPVLDSDGSFFLYSRLTVDKSRWQEGNVFSCSVMHEALHNHYTQKSLSLSLGKRSEVQLLESGGGLVQPGGSLRLSCAASGFTFGNYDMAWVRQAPGKRPEWVSSIDTGGDITHYADSVKGRFTISRDNAKNTLYLQMNSLRPEDTAVYWCATDEEYALGPNEFDYYGQGTLVTVSS
chain 2: B6 chain 1 with Y127C, C132S, W144S, L146A, Y185V
B7: NIgG4A1A1(RS) (Fc fusion)
chain 1: EVQLLESGGGLVQPGGSLRLSCAASGFTFGNYDMAWVRQAPGKRPEWVSSIDTGGDITHYADSVKGRFTISRDNAKNTLYLQMNSLRPEDTAVYWCATDEEYALGPNEFDYYGQGTLVTVSSRSGPPCPPCPAPEFLGGPSVFLFPPKPKDTLMISRTPEVTCVVVDVSQEDPEVQFNWYVDGVEVHNAKTKPREEQFNSTYRVVSVLTVLHQDWLNGKEYKCKVSNKGLPSSIEKTISKAKGQPREPQVYTLPPCQEEMTKNQVSLWCLVKGFYPSDIAVEWESNGQPENNYKTTPPVLDSDGSFFLYSRLTVDKSRWQEGNVFSCSVMHEALHNHYTQKSLSLSLGK
chain 2: B7 chain 1 with Y251C, C256S, W268S, L270A, Y309V
B8: NIgG4A1A1(G4S)1 (Fc fusion)
chain 1: EVQLLESGGGLVQPGGSLRLSCAASGFTFGNYDMAWVRQAPGKRPEWVSSIDTGGDITHYADSVKGRFTISRDNAKNTLYLQMNSLRPEDTAVYWCATDEEYALGPNEFDYYGQGTLVTVSSGGGGSGPPCPPCPAPEFLGGPSVFLFPPKPKDTLMISRTPEVTCVVVDVSQEDPEVQFNWYVDGVEVHNAKTKPREEQFNSTYRVVSVLTVLHQDWLNGKEYKCKVSNKGLPSSIEKTISKAKGQPREPQVYTLPPCQEEMTKNQVSLWCLVKGFYPSDIAVEWESNGQPENNYKTTPPVLDSDGSFFLYSRLTVDKSRWQEGNVFSCSVMHEALHNHYTQKSLSLSLGK
chain 2: B8 chain 1 with Y254C, C259S, W271S, L273A, Y312V

Each binder was assayed against mixture of three Der p 2 specific recombinant human IgE clones H10, H12, P4E (human) (UniProt P01854) (assay: RBL-SX38 IgE displacement, FACS).
Chain of mixture of three Der p 2 specific recombinant human IgE clones H10, H12, P4E (human) (P01854 other isoform, or with tags, fused parts or gaps): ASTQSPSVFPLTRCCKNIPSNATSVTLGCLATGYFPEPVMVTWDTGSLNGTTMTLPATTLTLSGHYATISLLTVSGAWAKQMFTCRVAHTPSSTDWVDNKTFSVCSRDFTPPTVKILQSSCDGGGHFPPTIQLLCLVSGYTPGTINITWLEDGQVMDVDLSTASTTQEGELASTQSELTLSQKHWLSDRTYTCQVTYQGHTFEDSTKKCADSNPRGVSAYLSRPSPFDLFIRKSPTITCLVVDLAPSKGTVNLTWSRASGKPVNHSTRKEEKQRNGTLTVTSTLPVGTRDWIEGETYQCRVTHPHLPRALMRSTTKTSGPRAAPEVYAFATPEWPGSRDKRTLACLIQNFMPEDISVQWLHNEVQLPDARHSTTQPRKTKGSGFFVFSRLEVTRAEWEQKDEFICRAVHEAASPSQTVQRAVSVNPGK
B1 showed a Max effect/effect 1 µM of 19%.
B2 gave an EC50 of 2.6 nM and a Max effect/effect 1 µM of 99%.
B3 gave a Max effect/effect 1 µM of 40%.
For B4, the Max effect/effect 1 µM was 36%.
B5 was tested, and the Max effect/effect 1 µM was 7%.
B6 gave a Max effect/effect 1 µM of 11%.
In the case of B7, the Max effect/effect 1 µM is reported as 45%.
Work on B8 yielded a Max effect/effect 1 µM of 44%.
